{"source": "paper PMC6990103", "about": "(2019)", "binders": {"B1": {"name": "sdAb ZC-gluc fusion (glucibody) (VHH)", "VHH": "KVQLQQSGGGSVTPGGSLRLSCAASGSISDFAAMAWYRQAPGKERDWVGTIFSAGALLYAEPVKGRFTISRDNAKNTVYLQMNSLKPEDTAVYYCRLYAEAIYWGQGTQVTVSS"}, "B2": {"name": "sdAb ZC, biotinylated (from pecan126) (VHH)", "VHH": "B1 VHH", "modifications": "biotin (singly biotinylated)"}, "B3": {"name": "sdAb ZE-gluc fusion (glucibody) (VHH)", "VHH": "QVQLQESGGGLVQPGGSLRLSCTASGFTLAEYGVGWFRQAPGKERELVALIAVGGTTHSIDSVKGRFTISRDNMKNTVYLQMNSLNVEDTAVYYCNAYSSAYDRNYWGQGTQVTVSS"}, "B4": {"name": "sdAb ZE, biotinylated (from pecan126) (VHH)", "VHH": "B3 VHH", "modifications": "biotin (singly biotinylated)"}, "B5": {"name": "sdAb SB, biotinylated (from pecan126) (VHH)", "VHH": "QVKLQQSGGGSVQEGGSLRLSCASSGAFFRAGPMGWYRRAPGNERELVAGISRNGRTIYAPSLKDRFTISRDDDNNILYLQMSDLTPGDTAVYYCNLNVRTAVAGRNDYWGQGTQVTVSS", "modifications": "biotin (singly biotinylated)"}, "B6": {"name": "sdAb SB-gluc fusion (glucibody) (VHH)", "VHH": "B5 VHH"}}, "experiment_in_all_cases": "ELISA", "key": {"[1]": {"target": "recombinant EBOV Kikwit 1995 NP (Zaire ebolavirus (EBOV) Kikwit 1995, UniProt O72142 1-739)"}, "[2]": {"target": "nluc-NP612 fusion protein, EBOV (Zaire ebolavirus (EBOV), UniProt O72142 612-739)"}, "[3]": {"target": "nluc-NP612 fusion protein, SUDV (Sudan ebolavirus (SUDV), UniProt Q9QP77 612-738)"}, "[4]": {"target": "recombinant SUDV Boniface 1976 NP (Sudan ebolavirus (SUDV) Boniface 1976, UniProt Q9QP77 1-738)"}}}
{"binder": "B1", "values": [{"measurement": "EC50", "setting": "[1]", "result": 13, "unit": "nM"}]}
{"binder": "B2", "values": [{"measurement": "EC50", "setting": "[2]", "result": 186, "unit": "nM"}]}
{"binder": "B3", "values": [{"measurement": "EC50", "setting": "[1]", "result": 31, "unit": "nM"}]}
{"binder": "B4", "values": [{"measurement": "EC50", "setting": "[2]", "result": 1030, "unit": "nM"}]}
{"binder": "B5", "values": [{"measurement": "EC50", "setting": "[3]", "result": 635, "unit": "nM"}]}
{"binder": "B6", "values": [{"measurement": "EC50", "setting": "[4]", "result": 37, "unit": "nM"}]}
